Results reported in patent US7211395 (dated 2007).
Bridges are numbered along the chain shown (N, C = ends).

Experiments:
rabbit serum albumin = target: T1, rabbit serum albumin (rabbit, UniProt P49065); assay: FP, pH 6.2, no NaCl
T1 chain: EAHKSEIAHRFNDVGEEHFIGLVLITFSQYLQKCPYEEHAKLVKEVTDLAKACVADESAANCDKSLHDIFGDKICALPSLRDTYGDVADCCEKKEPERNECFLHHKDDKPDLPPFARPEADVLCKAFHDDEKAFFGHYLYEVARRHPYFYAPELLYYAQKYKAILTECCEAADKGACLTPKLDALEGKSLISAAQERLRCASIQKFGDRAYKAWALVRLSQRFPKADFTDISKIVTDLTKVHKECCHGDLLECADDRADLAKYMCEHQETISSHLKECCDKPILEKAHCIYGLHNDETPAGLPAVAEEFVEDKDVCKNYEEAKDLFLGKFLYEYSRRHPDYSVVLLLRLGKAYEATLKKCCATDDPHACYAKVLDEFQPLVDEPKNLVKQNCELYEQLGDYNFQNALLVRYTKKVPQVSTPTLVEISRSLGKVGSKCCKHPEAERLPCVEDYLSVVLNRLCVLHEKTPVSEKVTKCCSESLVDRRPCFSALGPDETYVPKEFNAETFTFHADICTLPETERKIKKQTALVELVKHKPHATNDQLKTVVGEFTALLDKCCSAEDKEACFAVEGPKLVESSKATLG

pig serum albumin = target: T2, pig serum albumin (pig, UniProt P08835); assay: FP, pH 6.2, no NaCl
T2 chain: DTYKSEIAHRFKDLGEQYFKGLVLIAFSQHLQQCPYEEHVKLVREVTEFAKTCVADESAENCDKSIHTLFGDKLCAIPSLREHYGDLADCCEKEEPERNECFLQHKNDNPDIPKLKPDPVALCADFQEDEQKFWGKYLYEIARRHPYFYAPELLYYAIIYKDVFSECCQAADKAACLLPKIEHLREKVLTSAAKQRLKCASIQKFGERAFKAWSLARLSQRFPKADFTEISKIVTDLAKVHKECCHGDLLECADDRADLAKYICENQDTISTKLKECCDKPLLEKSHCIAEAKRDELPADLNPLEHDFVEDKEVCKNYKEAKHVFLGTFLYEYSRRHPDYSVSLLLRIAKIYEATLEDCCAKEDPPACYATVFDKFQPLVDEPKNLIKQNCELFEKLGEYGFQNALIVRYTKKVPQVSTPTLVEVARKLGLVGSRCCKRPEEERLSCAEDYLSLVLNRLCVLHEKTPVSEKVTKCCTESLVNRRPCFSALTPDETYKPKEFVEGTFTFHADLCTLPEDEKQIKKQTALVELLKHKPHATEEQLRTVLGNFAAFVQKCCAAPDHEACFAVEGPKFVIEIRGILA

chicken ovalbumin [1] = target: T3, chicken ovalbumin (chicken, UniProt P01012); assay: FP, PBS pH 7.4
T3 chain: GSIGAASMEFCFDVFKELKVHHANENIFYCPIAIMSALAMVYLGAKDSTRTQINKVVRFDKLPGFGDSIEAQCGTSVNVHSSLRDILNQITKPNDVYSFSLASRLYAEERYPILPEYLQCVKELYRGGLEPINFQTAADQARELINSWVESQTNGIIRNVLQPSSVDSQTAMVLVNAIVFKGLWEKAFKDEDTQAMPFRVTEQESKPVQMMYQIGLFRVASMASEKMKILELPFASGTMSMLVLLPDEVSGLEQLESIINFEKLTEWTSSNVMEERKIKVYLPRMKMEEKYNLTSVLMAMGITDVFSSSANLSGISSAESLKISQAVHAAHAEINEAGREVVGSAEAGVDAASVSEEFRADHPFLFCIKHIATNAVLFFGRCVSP

chicken ovalbumin [2] = target: T3, chicken ovalbumin; assay: FP, pH 6.2, no NaCl

## Ac-AEGTGDFWFCDRIAWYPQHLCEFLDPEGGGK(fluorescein)-NH2 (disulfide 10-21 (inferred)) [DX-236]
Rabbit serum albumin
  Kd: 500 nM
Pig serum albumin
  Kd: 500 nM
Chicken ovalbumin [1]
  Kd: > 200000 nM
Chicken ovalbumin [2]
  Kd: > 200000 nM
